Legend:
[1] = system: β-catenin-dependent transactivation; assay: LEF-1 consensus luciferase transactivation in SW480 cells (Example 2); format: cell-based, human; details: co-transfection, FIG. 19A
Procedure: (§1) Cell Culture and Transfections: Canine kidney epithelial cells MDCK, human fibrosarcoma HT1080, 293-T human embryonic kidney cells, Balb/C mouse 3T3 and human colon carcinoma SW480 cell lines were cultured in Dulbecco's modified Eagle's medium supplemented with 10% calf serum (Gibco, Grand Island, N.Y.) at 37° C. in the presence of 7% CO2. The human renal carcinoma cell line KTCTL60 was grown in RPMI medium and 10% calf serum. Cells were transiently transfected with the cDNA constructs described below, using Ca^2+-phosphate or lipofectamine (Gibco) and the expression of the transgene was assessed between 24 and 48 hours after transfection. In some experiments, the expression of the stably transfected NH2 terminus-deleted β-catenin (Δ57) was enhanced in HT1080 cells by overnight treatment with 2 mM sodium butyrate.
(§2) A plasmid encoding β-galactosidase (0.5 μg) was cotransfected to enable normalization for transfection efficiency. The relevant plasmid expressing catenin constructs (4.5 μg) was co-transfected with the reporter, or an empty expression vector was included. After 24-48 hours expression of the reporter (luciferase) and the control (β-galactosidase) genes were determined using enzyme assay systems from Promega (Madison, Wis.).

SW480 cells = assay: Double immunofluorescence of β-catenin in SW480 cells (Example 2); format: cell-based, human; details: transfected SW480 cells, FIG. 19B
Text: (§3) Immunofluorescence Microscopy: Cells cultured on glass coverslips were fixed with 3.7% paraformaldehyde in PBS and permeabilized with 0.5% Triton X-100. Monoclonal antibodies against human plakoglobin (11E4), β-catenin (5H10), the COOH terminus of β-catenin (6F9) and α-catenin (1G5) were described and kindly provided by Drs. M. Wheelock and K. Johnson (Univ. Toledo, Ohio). The secondary antibody was FITC- or Cy3-labeled goat anti mouse IgG (Jackson ImmunoResearch Laboratories, West Grove, Pa.). Polyclonal antiserum against β-catenin, monoclonal antibody against pan cadherin (CH-19), vinculin ([…]) and α-actinin (BM75.2) were from Sigma (Holon, Israel). Monoclonal antibodies against the splicing factor SC35 and the HA epitope were kindly provided by Dr. D. Helfman (CSH Laboratory, N.Y.). Polyclonal rabbit antibody against the VSV-G epitope was a gift from Dr. JC Perriard (ETH, Zurich, Switzerland). FITC-labeled goat anti-rabbit IgG antibody was from Cappel/ICN. Monoclonal antibody against LEF-1 was kindly provided by Dr. R. Grosschedl (Univ. Calif. San Francisco, Calif.). […] Images of the fluorescent cells were recorded with a cooled, scientific grade CCD camera (Photometrics, Tucson, Ariz.). Integrated fluorescent intensities in transfected and nontransfected cells were determined, after the background was subtracted.

[2] = system: LEF-1-driven transcription; assay: LEF-1 consensus (TOPFLASH) transactivation in 293 cells; format: cell-based, human; details: FIG. 18B
Procedure: as §1, §2

endogenous β-catenin = assay: Double immunofluorescence of endogenous β-catenin in transfected cells; format: cell-based; details: FIG. 18C
Text: as §3

Row | Molecule | effect on constitutive LEF-1 driven transcription [1] | effect on nuclear localization of β-catenin (SW480 cells) | LEF-1-driven transcription, fold lower extent than β-catenin [2] [fold] | nuclear translocation of endogenous β-catenin (endogenous β-catenin)
1 | α-catenin Δβ: HA-tagged mutant α-catenin lacking the β-catenin binding site (amino acids 118-166) (protein, left off: small tags and cut ends) MTAVTAGNVNFRWDPKSLEIRTLAVERLLEPLVTQVTTLVNTSNKGPSNKKRGRSKKAHVLAASVEQATENFLDKGDKIAKESQFLKEELVAAVEDVRKQGDLMKSASGEFADDPCSAGTEQDLGIQYKALKPEVDKLNIMAAKRQQELKDVGHRDQMAAARGILQKNVPILYTASQACLQHFDVAAYKANRDLIYKQLQQAVTGISNAAQATASDDAAQQQGGGGELAYALNNFDKQIIVDPSTFSEQRFRPSLEERLESIISGAALMADSSCTRDDRRERIVAECNAVRQALQDLLSEYMGNAGRKERSDALNSAIDKMTKKTRDLRRQLRKAVMDHVSDSFLETNVPLLVLIEAARNGNEKEVKEYTQVFREHANKLIEVANLACSISNNEEGVKLVRMSASQLEALCPQVINAALALAAKPQSKLAQENMELFKEQWEKQVRVLTDAVDDITSIDDFLAVSENHILEDVNKCVIALQEKDVDGLDRTAGAIRGRAARVIHVVTSEMDNYEPGVYTEKVLEATKLLSNTVMPRFTEQVEAAVEALSSDPAQPMDENEFIDRSRLVYDGIRDIRKAVLMIRTPEELDDSDFETEDFDVRSKTSIQTEDDQLIAGQSARAIMAQLPQEQKAKIAEAVASFQEEKSKLDAEVSKWDDSGNDIIVLAKQMCMIMMEMTDFTRGKGPLKNTSDVISAAKKIAEAGSRMDKLGRTIADHCPDSASKQDLLAYLQRIALYCHQLNICSKVKAEVQNLGGELVVSGVDSAMSLIQAAKNLMNAVVQTVKASYVASTKYQKSQGMASLNLPAVSWKMKAPEKKPLVKREKQDETQTKIKRASQKKHVNPVQALSEFKAMESI | abolished the transactivation inhibition capacity | did not show this activity | – | –
2 | plakoglobin: HA-tagged human plakoglobin (protein, UniProt P14923 1-745, looked up, HA tag) Junction plakoglobin: MEVMNLMEQPIKVTEWQQTYTYDSGIHSGANTCVPSVSSKGIMEEDEACGRQYTLKKTTTYTQGVPPSQGDLEYQMSTTARAKRVREAMCPGVSGEDSSLLLATQVEGQATNLQRLAEPSQLLKSAIVHLINYQDDAELATRALPELTKLLNDEDPVVVTKAAMIVNQLSKKEASRRALMGSPQLVAAVVRTMQNTSDLDTARCTTSILHNLSHHREGLLAIFKSGGIPALVRMLSSPVESVLFYAITTLHNLLLYQEGAKMAVRLADGLQKMVPLLNKNNPKFLAITTDCLQLLAYGNQESKLIILANGGPQALVQIMRNYSYEKLLWTTSRVLKVLSVCPSNKPAIVEAGGMQALGKHLTSNSPRLVQNCLWTLRNLSDVATKQEGLESVLKILVNQLSVDDVNVLTCATGTLSNLTCNNSKNKTLVTQNSGVEALIHAILRAGDKDDITEPAVCALRHLTSRHPEAEMAQNSVRLNYGIPAIVKLLNQPNQWPLVKATIGLIRNLALCPANHAPLQEAAVIPRLVQLLVKAHQDAQRHVAAGTQQPYTDGVRMEEIVEGCTGALHILARDPMNRMEIFRLNTIPLFVQLLYSSVENIQRVAAGVLCELAQDKEAADAIDAEGASAPLMELLHSRNEGTATYAAAVLFRISEDKNPDYRKRVSVELTNSLFKHDPAAWEAAQSMIPINEPYGDDMDATYRPMYSSDVPLDPLEMHMDMDGDYPIDTYSDGLRPPYPTADHMLA | – | – | 3 to 4 | resulted in nuclear translocation of endogenous β-catenin
3 | α-catenin: HA-tagged chicken α-catenin in the pCGN vector (protein, left off: small tags and cut ends, HA-tagged chicken α-catenin in the pCGN vector) TAVTAGNVNFRWDPKSLEIRTLAVERLLEPLVTQVTTLVNTSNKGPSNKKRGRSKKAHVLAASVEQATENFLDKGDKIAKESQFLKEELVAAVEDVRKQGDLMKSASGEFADDPCSSVKRGNMVRAARALLSAVTRLLILADMADVYKLLVQLKVVEEGILKLRNAGTEQDLGIQYKALKPEVDKLNIMAAKRQQELKDVGHRDQMAAARGILQKNVPILYTASQACLQHFDVAAYKANRDLIYKQLQQAVTGISNAAQATASDDAAQQQGGGGELAYALNNFDKQIIVDPSTFSEQRFRPSLEERLESIISGAALMADSSCTRDDRRERIVAECNAVRQALQDLLSEYMGNAGRKERSDALNSAIDKMTKKTRDLRRQLRKAVMDHVSDSFLETNVPLLVLIEAARNGNEKEVKEYTQVFREHANKLIEVANLACSISNNEEGVKLVRMSASQLEALCPQVINAALALAAKPQSKLAQENMELFKEQWEKQVRVLTDAVDDITSIDDFLAVSENHILEDVNKCVIALQEKDVDGLDRTAGAIRGRAARVIHVVTSEMDNYEPGVYTEKVLEATKLLSNTVMPRFTEQVEAAVEALSSDPAQPMDENEFIDRSRLVYDGIRDIRKAVLMIRTPEELDDSDFETEDFDVRSKTSIQTEDDQLIAGQSARAIMAQLPQEQKAKIAEAVASFQEEKSKLDAEVSKWDDSGNDIIVLAKQMCMIMMEMTDFTRGKGPLKNTSDVISAAKKIAEAGSRMDKLGRTIADHCPDSASKQDLLAYLQRIALYCHQLNICSKVKAEVQNLGGELVVSGVDSAMSLIQAAKNLMNAVVQTVKASYVASTKYQKSQGMASLNLPAVSWKMKAPEKKPLVKREKQDETQTKIKRASQKKHVNPVQALSEFKAMESI | effectively blocked | sequestered to the cytoplasm | – | –

Source: patent publication US20020045591A1, “Methods and therapeutic compositions for treating cancer” (priority 1998, published 2002)
